# Assay results published in publication PMC10033678, “The RRM-mediated RNA binding activity in T. brucei RAP1 is essential for VSG monoallelic expression”.
# T1: TbRAP1 639-733 (RRM) (Trypanosoma brucei) (UniProt C1JEX5)
# T1 sequence: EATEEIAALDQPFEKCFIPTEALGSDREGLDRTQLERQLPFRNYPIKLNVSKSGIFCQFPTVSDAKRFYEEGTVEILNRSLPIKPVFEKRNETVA
# B1: 170-VSG-UTR (ssRNA)
# RNA: GGGCGAAUUGGGUACCGGGCCCCCCCUCGAGGUCGACGGUAUCGAUAAGCUUGAUAUCGAAUUCAAUUCAUUUCCCCCCUCAAAUUUCCCCCCUCCUUUUAAAAUUUUCCUUGCUACUUGAAAACUUUUUGAUAUAUUUUAACACCAAAACCAGCCGAGAUUUGGGAUCC
# B2: 80-dsDNA (dsDNA)
# DNA 1: CGTGCAGAGCAGGAAAAAGCCACACGGGAACTCCTCCTGCAACAAACTTCAGCACCACATGCATCATCAGTTACATCCGG
# DNA 2: CCGGATGTAACTGATGATGCATGTGGTGCTGAAGTTTGTTGCAGGAGGAGTTCCCGTGTGGCTTTTTCCTGCTCTGCACG
# B3: 34-VSG-UTR (ssRNA)
# RNA: AAAACUUUUUGAUAUAUUUUAACACCAAAACCAG
# B4: 170-no-VSG (ssRNA)
# RNA: GGGCGAAUUGGGUACCGGGCCCCCCCUCGAGGUCGACGGUAUCGAUAAGCUUGAUAUCGAAUUCAAUUCCAAAGAAGCCAUGCGCCGUGCAGAGCAGGAAAAAGCCACACGGGAACUCCUCCUGCAACAAACUUCAGCACCACAUGCAUCAUCAGUUACAUCCGGGAUCC
# B5: 6-FAM-16-VSG-UTR (ssRNA)
# RNA: UGAUAUAUUUUAACAC
# B6: 35-VSG-UTR (ssRNA)
# RNA: UUGCUACUUGAAAACUUUUUGAUAUAUUUUAACAC
# B7: (UUAGGG)2 (ssRNA)
# RNA: UUAGGGUUAGGG
# B8: 35-random (ssRNA)
# RNA: ACAGACCACUACAAGAUACACAGUACAACCAACCA
# Columns and labels:
# [1] = target: T1, TbRAP1 639-733 (RRM) (Trypanosoma brucei); assay: fluorescence polarization; details: EMSA: 20 mM HEPES pH 7.9, 235 mM KCl, 1 mM MgCl2, 0.1 mM EDTA, 100 ng/ul BSA, 5% glycerol, 1 mM DTT, room temp 30 min; FP: 20 mM sodium phosphate pH 7.0, 50 mM …
# TbRAP1 639-733 2FA = TbRAP1 639-733 2FA (Trypanosoma brucei, UniProt C1JEX5 639-733, F655A;F694A); assay: EMSA; EMSA: 20 mM HEPES pH 7.9, 235 mM KCl, 1 mM MgCl2, 0.1 mM EDTA, 100 ng/ul BSA, 5% glycerol, 1 mM DTT, room temp 30 min; FP: 20 mM sodium phosphate pH 7.0, 50 mM; details: protein: recombinant, tags: none (TrxA-His6 removed by 3C)
# TbRAP1 639-733 2FQ = TbRAP1 639-733 2FQ (Trypanosoma brucei, UniProt C1JEX5 639-733, F655Q;F694Q); assay: as above; details: protein: recombinant, tags: none (TrxA-His6 removed by 3C)
# TbRAP1 639-733 2FL [2] = target: T2, TbRAP1 639-733 2FL (Trypanosoma brucei, UniProt C1JEX5 639-733, F655L;F694L); assay: as above; details: protein: recombinant, tags: none (TrxA-His6 removed by 3C for EMSA)
# TbRAP1 639-761 (RRM+DB) [3] = target: T3, TbRAP1 639-761 (RRM+DB) (Trypanosoma brucei, UniProt C1JEX5 639-761); assay: as above; details: protein: recombinant, tags: none (TrxA-His6 removed by 3C for EMSA)
# [4] = target: TH6-TbRAP1 639-761 2FA&5A (Trypanosoma brucei, UniProt C1JEX5 639-761, F655A;F694A;R737A;K738A;R739A;R740A;R741A); assay: as above; details: protein: recombinant; tags: TrxA-His6
# TH6-TbRAP1 639-761 5A = TH6-TbRAP1 639-761 5A (Trypanosoma brucei, UniProt C1JEX5 639-761, R737A;K738A;R739A;R740A;R741A); assay: as above; details: protein: recombinant, tags: TrxA-His6
# TbRAP1 639-761 (RRM+DB) [5] = target: T3, TbRAP1 639-761 (RRM+DB); assay: NMR titration; EMSA: 20 mM HEPES pH 7.9, 235 mM KCl, 1 mM MgCl2, 0.1 mM EDTA, 100 ng/ul BSA, 5% glycerol, 1 mM DTT, room temp 30 min; FP: 20 mM sodium phosphate pH 7.0, 50 mM; details: protein: recombinant; tags: none (TrxA-His6 removed by 3C for EMSA)
# TbRAP1 639-733 2FL [6] = target: T2, TbRAP1 639-733 2FL; assay: NMR titration; 3x molar excess RNA; EMSA: 20 mM HEPES pH 7.9, 235 mM KCl, 1 mM MgCl2, 0.1 mM EDTA, 100 ng/ul BSA, 5% glycerol, 1 mM DTT, room temp 30 min; FP: 20 mM sodium phosphate pH 7.0, 50 mM; details: protein: recombinant; tags: none (TrxA-His6 removed by 3C for EMSA)
# TH6-TbRAP1 639-761 = TH6-TbRAP1 639-761 (Trypanosoma brucei, UniProt C1JEX5 639-761); assay: EMSA; EMSA: 20 mM HEPES pH 7.9, 235 mM KCl, 1 mM MgCl2, 0.1 mM EDTA, 100 ng/ul BSA, 5% glycerol, 1 mM DTT, room temp 30 min; FP: 20 mM sodium phosphate pH 7.0, 50 mM; details: protein: recombinant; tags: TrxA-His6; label: 32P
# TH6-TbRAP1 639-733 = TH6-TbRAP1 639-733 (Trypanosoma brucei, UniProt C1JEX5 639-733); assay: as above; details: protein: recombinant; tags: TrxA-His6; label: 32P
# TbRAP1 639-761 (RRM+DB) [7] = target: T3, TbRAP1 639-761 (RRM+DB); assay: fluorescence polarization; EMSA: 20 mM HEPES pH 7.9, 235 mM KCl, 1 mM MgCl2, 0.1 mM EDTA, 100 ng/ul BSA, 5% glycerol, 1 mM DTT, room temp 30 min; FP: 20 mM sodium phosphate pH 7.0, 50 mM; details: protein: recombinant; tags: none (TrxA-His6 removed by 3C for EMSA); label: 5' 6-FAM
# TbRAP1 639-761 5A = TbRAP1 639-761 5A (Trypanosoma brucei, UniProt C1JEX5 639-761, R737A;K738A;R739A;R740A;R741A); assay: as above; details: protein: recombinant; label: 5' 6-FAM
# TbRAP1 639-733 (RRM) [8] = target: T4, TbRAP1 639-733 (RRM) (Trypanosoma brucei, UniProt C1JEX5 639-733); assay: EMSA; EMSA: 20 mM HEPES pH 7.9, 235 mM KCl, 1 mM MgCl2, 0.1 mM EDTA, 100 ng/ul BSA, 5% glycerol, 1 mM DTT, room temp 30 min; FP: 20 mM sodium phosphate pH 7.0, 50 mM; details: protein: recombinant; tags: none (TrxA-His6 removed by 3C for EMSA); label: 32P end label
# TbRAP1 639-733 (RRM) [9] = target: T4, TbRAP1 639-733 (RRM); assay: NMR titration; EMSA: 20 mM HEPES pH 7.9, 235 mM KCl, 1 mM MgCl2, 0.1 mM EDTA, 100 ng/ul BSA, 5% glycerol, 1 mM DTT, room temp 30 min; FP: 20 mM sodium phosphate pH 7.0, 50 mM; details: protein: recombinant, tags: none (TrxA-His6 removed by 3C for EMSA)
molecule,measurement,setting,value
UGAUAUAUUUUAACAC [6-FAM-16-VSG-UTR],Kd,[1],929 µM
B1,binding result,TbRAP1 639-733 2FA,no binding
same,binding result,TbRAP1 639-733 2FQ,no binding
same,binding result,TbRAP1 639-733 2FL [2],no binding
same,Kd,TbRAP1 639-761 (RRM+DB) [3],~0.173 µM
same,binding result,[4],no binding
same,binding result,TH6-TbRAP1 639-761 5A,binds
B2,binding result,"TbRAP1 639-761 (RRM+DB) [3]; label: 32P Klenow, blunt",binds
B3,binding result,TbRAP1 639-761 (RRM+DB) [5],binds
same,binding result,TbRAP1 639-733 2FL [6],no binding
B4,binding result,TbRAP1 639-733 2FA; label: 32P,no binding
same,binding result,TbRAP1 639-733 2FQ; label: 32P,no binding
same,binding result,TbRAP1 639-733 2FL [2]; label: 32P,no binding
same,binding result,TbRAP1 639-761 (RRM+DB) [3]; label: 32P,binds
same,binding result,TH6-TbRAP1 639-761,binds
same,binding result,TH6-TbRAP1 639-761 5A; label: 32P,binds
same,binding result,TH6-TbRAP1 639-733,binds
B5,Kd,TbRAP1 639-761 (RRM+DB) [7],~258 µM
same,Kd,TbRAP1 639-761 5A,~969 µM
B6,binding result,TbRAP1 639-761 (RRM+DB) [3]; label: 32P end label,binds
same,binding result,TbRAP1 639-733 (RRM) [8],binds
B7,binding result,TbRAP1 639-733 (RRM) [9],no binding
B8,binding result,TbRAP1 639-733 (RRM) [9]; label: 32P end label in EMSA,no binding
